Source: paper PMC4231716

Molecular target: HIV-1JR-FLΔCT Env trimer (HIV-1 JR-FL) (UniProt Q75760)
Test: flow cytometry on cells

Question: For “C34-Ig, fusion protein of an immunoglobulin Fc and the gp41 HR2 peptide (Fc fusion)”, which percent of Env-expressing cells binding C34-Ig is on record?
Answer: 37%
